How the values were obtained:
[1] = molecular target: T1, TGFβR2.B3.F8 I-OnuI HE variant (HEK 293T expression) (Artificial Sequence (parent Ophiostoma …)); test: cell_activity; rate of generating iRFP-positive cells; chromosomal reporter in HEK 293T
T1 chain: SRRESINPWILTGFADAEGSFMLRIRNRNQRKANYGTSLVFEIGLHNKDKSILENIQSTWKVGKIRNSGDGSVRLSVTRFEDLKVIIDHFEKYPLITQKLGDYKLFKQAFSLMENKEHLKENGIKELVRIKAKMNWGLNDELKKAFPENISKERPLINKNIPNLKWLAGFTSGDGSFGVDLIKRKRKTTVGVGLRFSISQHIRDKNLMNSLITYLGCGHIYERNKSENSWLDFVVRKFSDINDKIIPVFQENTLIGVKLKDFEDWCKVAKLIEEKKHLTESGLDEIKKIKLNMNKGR
Procedure: The activity of reprogrammed I-OnuI HEs that target exon 6 of the TGFβR2 gene was measured using a chromosomally integrated fluorescent reporter system (Certo et. al., 2011). Fully reprogrammed I-OnuI HEs that bind and cleave the TGFβR2 target sequence (SEQ ID NO: 11) were cloned into mammalian expression plasmids and then individually transfected into a HEK 293T […] cell line that contained the TGFβR2 target sequence upstream of an out-of-frame gene encoding the fluorescent iRFP protein. Cleavage of the embedded target site by the HE and the accumulation of indels following DNA repair via the non-homologous end joining (NHEJ) pathway results in approximately one out of three repaired loci placing the fluorescent reporter gene back “in-frame”. The percentage of iRFP fluorescing HEK 293T cells is therefore used a readout of endonuclease activity at the chromosomally embedded target sequence. […] FIG. 3 (top graph).
A secondary I-OnuI variant library was next generated by performing random mutagenesis on the TGFβR2.B3 HE variant (e.g., SEQ ID NO: 6). Display-based flow sorting was performed under more stringent cleavage conditions in an effort to isolate variants with improved catalytic efficiency. […] FIG. 3 (bottom graph).

[2] = molecular target: T2, TGFβR2.B3.F8 I-OnuI HE variant (yeast surface display) (Artificial Sequence (parent Ophiostoma …)); test: flow; sub-nanomolar affinity stated; yeast surface affinity titration, exact value only in figure; conditions: tags: yeast surface display
T2 chain: T1 chain

B1: TGFβR2 exon 6 I-OnuI HE variant target site (dsDNA)
DNA 1: CGACCAGAAATTCCCAGCTTCT
DNA 2: AGAAGCTGGGAATTTCTGGTCG
For B1, the activity [1] was about 4 fold vs TGFβR2.B3 and the Kd [2] was under 1 nM.

Source: patent US20200123515, “TGFBetaR2 ENDONUCLEASE VARIANTS, COMPOSITIONS, AND METHODS OF USE” (bluebird bio, Inc., published 2020)
